Laboratory results: paper PMC8210318, “The HelQ human DNA repair helicase utilizes a PWI-like domain for DNA loading through interaction with RPA, triggering DNA unwinding by the HelQ helicase core” (NAR Cancer, 2021)

Experiments:
[1] = biological target: the molecule itself; test: SEC-MALS; HelQ apoenzyme, 200 ul of 2.4 uM monomer, Superdex-200, 50 mM Tris-HCl pH 8.0, 150 mM NaCl, 10% glycerol, pre-incubated 10 min at 37°C; no ATP-Mg2+
[2] = biological target: the molecule itself; test: SEC-MALS; HelQ with ATP-Mg2+: pre-incubated in 5 mM MgCl2 and 5 mM ATP at 37°C for 10 min, running buffer with 0.2 mM ATP and 0.2 mM MgCl2, Superdex-200
[3] = biological target: the molecule itself; test: SEC; analytical gel filtration of C-HelQ in ATP-Mg2+ and ssDNA, Superdex-200, against mass standards

Protein | stoichiometry N [1] | stoichiometry N [2] | stoichiometry N [3]
HelQ helicase, full length, human (enzyme, UniProt Q8TDG4 1-1101, looked up, human HelQ DNA repair helicase, full length; Tetramer as apoenzyme and dimer with ATP-Mg2+ by SEC-MALS; also called HelQ apoenzyme; His-SUMO-SF-tagged HelQ; source: SF9 insect cells (Bac-to-Bac baculovirus), purified (ammonium sulphate, Ni-NTA, heparin, Q-sepharose); not shown: His6, N-terminal, kept; SUMO, N-terminal, kept; StrepII-Flag, N-terminal, kept) MDECGSRIRRRVSLPKRNRPSLGCIFGAPTAAELVPGDEGKEEEEMVAENRRRKTAGVLPVEVQPLLLSDSPECLVLGGGDTNPDLLRHMPTDRGVGDQPNDSEVDMFGDYDSFTENSFIAQVDDLEQKYMQLPEHKKHATDFATENLCSESIKNKLSITTIGNLTELQTDKHTENQSGYEGVTIEPGADLLYDVPSSQAIYFENLQNSSNDLGDHSMKERDWKSSSHNTVNEELPHNCIEQPQQNDESSSKVRTSSDMNRRKSIKDHLKNAMTGNAKAQTPIFSRSKQLKDTLLSEEINVAKKTVESSSNDLGPFYSLPSKVRDLYAQFKGIEKLYEWQHTCLTLNSVQERKNLIYSLPTSGGKTLVAEILMLQELLCCRKDVLMILPYVAIVQEKISGLSSFGIELGFFVEEYAGSKGRFPPTKRREKKSLYIATIEKGHSLVNSLIETGRIDSLGLVVVDELHMIGEGSRGATLEMTLAKILYTSKTTQIIGMSATLNNVEDLQKFLQAEYYTSQFRPVELKEYLKINDTIYEVDSKAENGMTFSRLLNYKYSDTLKKMDPDHLVALVTEVIPNYSCLVFCPSKKNCENVAEMICKFLSKEYLKHKEKEKCEVIKNLKNIGNGNLCPVLKRTIPFGVAYHHSGLTSDERKLLEEAYSTGVLCLFTCTSTLAAGVNLPARRVILRAPYVAKEFLKRNQYKQMIGRAGRAGIDTIGESILILQEKDKQQVLELITKPLENCYSHLVQEFTKGIQTLFLSLIGLKIATNLDDIYHFMNGTFFGVQQKVLLKEKSLWEITVESLRYLTEKGLLQKDTIYKSEEEVQYNFHITKLGRASFKGTIDLAYCDILYRDLKKGLEGLVLESLLHLIYLTTPYDLVSQCNPDWMIYFRQFSQLSPAEQNVAAILGVSESFIGKKASGQAIGKKVDKNVVNRLYLSFVLYTLLKETNIWTVSEKFNMPRGYIQNLLTGTASFSSCVLHFCEELEEFWVYRALLVELTKKLTYCVKAELIPLMEVTGVLEGRAKQLYSAGYKSLMHLANANPEVLVRTIDHLSRRQAKQIVSSAKMLLHEKAEALQEEVEELLRLPSDFPGAVASSTDKA | 4 | 2 | –
C-HelQ, HelQ 'core' helicase (826 amino acids) (domain or fragment, human, UniProt Q8TDG4 275-1101, looked up, human HelQ helicase core: the 826 amino acids that match Hel308; excludes the 274 amino acid N-terminal region; 85 kDa; The start at 275 follows from the excluded 274 residue N-terminal region; also called core HelQ helicase; source: Escherichia coli, purified (as described for HelQ)) GNAKAQTPIFSRSKQLKDTLLSEEINVAKKTVESSSNDLGPFYSLPSKVRDLYAQFKGIEKLYEWQHTCLTLNSVQERKNLIYSLPTSGGKTLVAEILMLQELLCCRKDVLMILPYVAIVQEKISGLSSFGIELGFFVEEYAGSKGRFPPTKRREKKSLYIATIEKGHSLVNSLIETGRIDSLGLVVVDELHMIGEGSRGATLEMTLAKILYTSKTTQIIGMSATLNNVEDLQKFLQAEYYTSQFRPVELKEYLKINDTIYEVDSKAENGMTFSRLLNYKYSDTLKKMDPDHLVALVTEVIPNYSCLVFCPSKKNCENVAEMICKFLSKEYLKHKEKEKCEVIKNLKNIGNGNLCPVLKRTIPFGVAYHHSGLTSDERKLLEEAYSTGVLCLFTCTSTLAAGVNLPARRVILRAPYVAKEFLKRNQYKQMIGRAGRAGIDTIGESILILQEKDKQQVLELITKPLENCYSHLVQEFTKGIQTLFLSLIGLKIATNLDDIYHFMNGTFFGVQQKVLLKEKSLWEITVESLRYLTEKGLLQKDTIYKSEEEVQYNFHITKLGRASFKGTIDLAYCDILYRDLKKGLEGLVLESLLHLIYLTTPYDLVSQCNPDWMIYFRQFSQLSPAEQNVAAILGVSESFIGKKASGQAIGKKVDKNVVNRLYLSFVLYTLLKETNIWTVSEKFNMPRGYIQNLLTGTASFSSCVLHFCEELEEFWVYRALLVELTKKLTYCVKAELIPLMEVTGVLEGRAKQLYSAGYKSLMHLANANPEVLVRTIDHLSRRQAKQIVSSAKMLLHEKAEALQEEVEELLRLPSDFPGAVASSTDKA | – | – | 2
